Columns and labels:
[1] = target: fibrin clots (formed from fibrinogen with bovine thrombin); experiment: fibrin clot binding; ratio against full length t-PA
[2] = target: fibrin clots (formed from fibrinogen with bovine thrombin); experiment: fibrin clot binding at 0.2 mg/mL fibrinogen; bound = total minus free enzyme in the supernatant
[3] = target: fibrin clots (formed from fibrinogen with bovine thrombin); experiment: fibrin clot binding at 0.3 mg/mL fibrinogen; bound = total minus free enzyme in the supernatant
[4] = target: chimeric truncated and mutant variant of t-PA (truncated-mutant t-PA, KHRR 128-131 substituted with AAAA) (human) (UniProt P00750); experiment: cell-based or functional assay
[5] = target: full length t-PA (tissue-type plasminogen activator), commercially available t-PA, Actylase (human) (UniProt P00750); experiment: cell-based or functional assay

Row | fibrin affinity relative to full length t-PA (set to 100%) [1] [%] | fibrin affinity (percent of enzyme bound to fibrin clot) [2] [%] | fibrin affinity (percent of enzyme bound to fibrin clot) [3] [%] | residual activity after inhibition by rPAI-1 [4] [%] | residual activity after inhibition by rPAI-1 [5] [%] | Substance
1 | 86 | 38 | 46 |  |  | chimeric truncated t-PA (GHRP-SYQ-K2S) (from UniProt P00750 211-562) (enzyme)
2 |  | 44 | 53 |  |  | full length t-PA (tissue-type plasminogen activator), commercially available t-PA, Actylase (from UniProt P00750 36-562) (enzyme)
3 |  |  |  | 85 | 65 | human rPAI-1 (recombinant plasminogen activator inhibitor-1) (from UniProt P05121 24-402)

Reference: patent US20120058537A1
